The record followed here is paper doi:10.1101/2022.08.19.504623.

Assay [1] has as its target FlaK D236A with a C-terminal His6-tag (Vibrio alginolyticus). The experiment in a line: cross-linking.
Assay [2] concerns the target FlaK E237Q with a C-terminal His6-tag (Vibrio alginolyticus). The assay can be described thus: cross-linking.
Assay [3] deals with FlaK I365E with a C-terminal His6-tag (Vibrio alginolyticus). The experiment in a line: SEC. (In general: In gel filtration, larger molecules generally elute earlier.)
Assay [4] shares this target. The assay can be described thus: cross-linking.
Assay [5] deals with FlaK K171A with a C-terminal His6-tag (Vibrio alginolyticus). The experiment in a line: SEC.
Assay [6] shares this target. The experiment in a line: cross-linking.
For assay [7] the target is unchanged. The experiment in a line: cross-linking + SEC.
The target in assay [8] is FlaK L371E with a C-terminal His6-tag (Vibrio alginolyticus). The assay can be described thus: cross-linking.
The target of assay [9] is FlaK Q140E with a C-terminal His6-tag (Vibrio alginolyticus). The experiment in a line: cross-linking.
In assay [10] the target is FlaK, wild type, with a C-terminal His6-tag (Vibrio alginolyticus). The experiment in a line: SEC.
For assay [11] the target is unchanged. The assay can be described thus: cross-linking.
For assay [12] the target is unchanged. The experiment in a line: cross-linking + SEC.

“And” between values parts separate entries of the source, which are not always exact repeats. Equal values may be shown once.

A word on the stoichiometry N: it is the number of molecules, sites or subunits per partner or assembly. Regarding “FlaK D236A with a C-terminal His6-tag (natural protein)”, the stoichiometry N in assay [1] turned out to be 2.

“FlaK E237Q with a C-terminal His6-tag (natural protein)” displayed a stoichiometry N in [2] of 2. In the case of “FlaK I365E with a C-terminal His6-tag (natural protein)”, the stoichiometry N in assay [3] and in assay [4] was 2 throughout.

Turning to “FlaK K171A with a C-terminal His6-tag (natural protein)”, the stoichiometry N in assay [5] was 2; in [6] it was 2; in assay [7], 4 and 6. As to “FlaK L371E with a C-terminal His6-tag (natural protein)”, the stoichiometry N in [8] worked out at 2. Consider “FlaK Q140E with a C-terminal His6-tag (natural protein)”, for which, in assay [9], the stoichiometry N came to 2. On to “FlaK, wild type, with a C-terminal His6-tag (natural protein)”, for which the stoichiometry N in assay [10] was 2; in [11] it was 2; in assay [12], 4 and 6.
